Results published in patent US20240092919A1 (Ablynx, published 2024).
“And” between values parts separate entries of the source, which are not always exact repeats. Equal values may be shown once.

Experiments:
[1] = biological target: T1, Cynomolgus TCR(AEA41865/AEA41866)-zipper protein (cynomolgus monkey); test: SPR, ProteOn XPR36, 37 C, immobilised TCR-zipper
T1 construct: also called cyTCR-zipper protein; cynoTCR zipper
From the text: In brief, huTCR-zipper or cyTCR-zipper protein was immobilized on a GLC sensor chip (between 100-200 RU) via amine coupling chemistry, using EDC/NHS for activation of the carboxyl groups on the chip surface (running buffer: HBS-EP+, pH7.4). […] Processed sensorgrams were fitted with the Langmuir model (1:1 interaction) using ProteOn Manager 3.1.0 (Version 3.1.0.6) software.
T1 TCR alpha: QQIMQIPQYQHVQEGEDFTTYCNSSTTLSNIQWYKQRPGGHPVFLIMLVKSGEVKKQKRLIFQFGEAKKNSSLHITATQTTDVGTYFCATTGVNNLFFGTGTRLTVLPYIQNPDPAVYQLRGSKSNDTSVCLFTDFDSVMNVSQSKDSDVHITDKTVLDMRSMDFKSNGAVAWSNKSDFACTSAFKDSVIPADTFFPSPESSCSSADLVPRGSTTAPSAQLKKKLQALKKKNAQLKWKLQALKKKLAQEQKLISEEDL
T1 TCR beta: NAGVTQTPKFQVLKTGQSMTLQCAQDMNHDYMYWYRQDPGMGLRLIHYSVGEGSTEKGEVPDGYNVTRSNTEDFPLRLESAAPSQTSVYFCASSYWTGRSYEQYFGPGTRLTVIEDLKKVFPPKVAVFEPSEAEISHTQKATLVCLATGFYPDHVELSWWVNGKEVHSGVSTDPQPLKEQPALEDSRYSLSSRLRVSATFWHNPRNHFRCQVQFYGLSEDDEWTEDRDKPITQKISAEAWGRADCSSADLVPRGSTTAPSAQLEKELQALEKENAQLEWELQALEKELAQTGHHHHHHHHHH

[2] = biological target: T2, Cynomolgus T cell receptor on the HSC-F cynomolgus T cell line (cynomolgus monkey); test: flow cytometry competition with Flag3-His6-tagged anti-TCR ISVD ligand, HSC-F cells
T2 construct: whole, on cells; also called HSC-F cells; HSC-F cyno T cell line (NIBIO JCRB1164)
Method: (§1) Subsequently, cells were resuspended in FACS buffer supplemented with 1 μg/ml Propidium Iodide (PI, Sigma, P4170) to distinguish live from dead cells. Cells were analyzed using a FACS Array flow cytometer (BD Biosciences) using Flowing Software. First a P1 population which represented more than 80% of the total cell population was selected based on FSC-SSC distribution. In this gate, 10000 cells were counted during acquisition. From this population the Propidium iodide or TO-PRO©-3 Iodide positive cells (dead cells) were excluded and the median or Mean PE value was calculated.

[3] = biological target: T3, Human T cell receptor on human primary T cells (human, UniProt P01848 1-140; P01850 1-176); test: flow cytometry competition with Flag3-His6-tagged anti-TCR ISVD ligand, human primary T cells
T3 construct: whole, on cells
Method: as §1
T3 TCR alpha (looked up): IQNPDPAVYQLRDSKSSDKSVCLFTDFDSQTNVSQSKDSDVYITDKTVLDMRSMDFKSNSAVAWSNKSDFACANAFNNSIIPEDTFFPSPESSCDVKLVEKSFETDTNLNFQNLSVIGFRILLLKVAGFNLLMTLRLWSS
T3 TCR beta (looked up): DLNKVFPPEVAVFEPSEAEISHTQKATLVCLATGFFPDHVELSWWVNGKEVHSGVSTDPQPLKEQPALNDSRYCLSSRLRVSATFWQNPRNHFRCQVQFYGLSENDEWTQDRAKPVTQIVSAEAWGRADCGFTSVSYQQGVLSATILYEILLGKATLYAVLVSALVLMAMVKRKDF

[4] = biological target: T4, Cynomolgus TCR(AEA41865/AEA41866)-zipper protein (cynomolgus monkey); test: SPR (ProteOn XPR36, 37°C), KD on huTCR-zipper against KD on cyTCR-zipper
T4 construct: also called cyTCR-zipper; cynoTCR-zipper protein
T4 TCR alpha: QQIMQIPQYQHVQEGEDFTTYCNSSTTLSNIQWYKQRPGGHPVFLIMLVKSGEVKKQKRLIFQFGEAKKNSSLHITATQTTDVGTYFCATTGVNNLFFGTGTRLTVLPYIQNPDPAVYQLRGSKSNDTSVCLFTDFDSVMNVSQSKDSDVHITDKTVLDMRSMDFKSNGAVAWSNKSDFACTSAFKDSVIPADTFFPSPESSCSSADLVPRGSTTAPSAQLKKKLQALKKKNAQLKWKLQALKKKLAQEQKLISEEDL
T4 TCR beta: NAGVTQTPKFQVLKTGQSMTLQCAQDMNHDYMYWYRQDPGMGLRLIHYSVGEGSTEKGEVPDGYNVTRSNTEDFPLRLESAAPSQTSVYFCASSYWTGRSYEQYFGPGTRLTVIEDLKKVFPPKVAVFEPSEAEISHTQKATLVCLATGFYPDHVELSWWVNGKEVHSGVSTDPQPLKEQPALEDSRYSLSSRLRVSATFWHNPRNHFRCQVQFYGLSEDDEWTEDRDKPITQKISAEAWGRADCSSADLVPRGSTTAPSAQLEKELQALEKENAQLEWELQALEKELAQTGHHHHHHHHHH

[5] = biological target: T4, Cynomolgus …; test: SPR (ProteOn XPR36), KD on cyTCR-zipper against KD on huTCR-zipper
From the text: HuTCR-zipper or cyTCR-zipper protein was immobilized on a GLC sensor chip (between 100-200 RU) via amine coupling chemistry, using EDC/NHS for activation of the carboxyl groups on the chip surface (running buffer: HBS-EP+, pH7.4). […] Processed sensorgrams were fitted with the Langmuir model (1:1 interaction) using ProteOn Manager 3.1.0 (Version 3.1.0.6) software.

[6] = biological target: T5, human CD33 on cells (human, UniProt P20138 18-364); test: flow cytometry on CHO cells transfected with human CD33
T5 construct: whole, on cells; also called CHO hu CD33; huCD33
T5 sequence (P20138 18-364): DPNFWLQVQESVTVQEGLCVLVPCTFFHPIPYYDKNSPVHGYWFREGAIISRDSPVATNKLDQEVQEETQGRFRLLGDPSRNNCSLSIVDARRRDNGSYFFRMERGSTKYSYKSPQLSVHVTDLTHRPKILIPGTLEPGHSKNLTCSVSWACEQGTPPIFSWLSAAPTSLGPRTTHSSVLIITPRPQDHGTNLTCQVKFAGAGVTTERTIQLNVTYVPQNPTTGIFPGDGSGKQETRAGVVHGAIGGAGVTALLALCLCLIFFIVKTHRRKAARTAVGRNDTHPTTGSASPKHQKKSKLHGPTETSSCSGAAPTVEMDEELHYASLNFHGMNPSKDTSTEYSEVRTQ
Method: (§2) Subsequently, cells were resuspended in 50 μL cold FACS buffer supplemented with 1 μg/mL the Propidium iodide (PI, Sigma P4170) to distinguish live from dead cells. After staining, cells were acquired using the MACSQuant X flow cytometer (Miltenyi Biotec) and analyzed using FlowLogic (Miltenyi Biotec). First a P1 population which represented more than 80% of the total events was selected based on FSC-SSC distribution, to distinguish cells from debris. From this population (P1) the PI positive (dead) cells were excluded and the median APC fluorescence intensity of the PI negative cells was evaluated.

[7] = biological target: T6, cynomolgus CD33 on cells (cynomolgus); test: flow cytometry on CHO cells transfected with cynomolgus CD33
T6 construct: whole, on cells; also called CHO cy CD33; cyCD33
Method: as §2

B1: T017000680 (VHH)
VHH: DVQLVESGGGVVQPGGSLRLSCVASGYVHKINFYGWYRQAPGKEREKVAHISIGDQTDYADSAKGRFTISRDESKNTVYLQMNSLRPEDTAAYYCRALSRIWPYDYWGQGTLVTVSS
[1]
  Kd: 4.9 nM
[2]
  IC50: 730 nM
[3]
  IC50: 100 nM

B2: T017000680 (VHH)
VHH: DVQLVESGGGVVQPGGSLRLSCVASGYVHKINFYGWYRQAPGKEREKVAHISIGDQTDYADSAKGRFTISRDESKNTVYLQMNSLRPEDTAAYYCRALSRIWPYDYWGQGTLVTVSS
[4]
  delta for human-cynomolgus cross-reactivity based on KD: 1.8 fold

B3: T017000624 (VHH, not shown: small tags and cut ends)
VHH: EVQLVESGGGVVQPGGSLRLSCVASGYVHKINFYGWYRQAPGKEREKVAHISIGDQTDYADSAKGRFTISRDESKNTVYLQMNSLRPEDTALYYCRALSRIWPYDYWGQGTLVTVSS
[5]
  difference in human-cynomolgus cross-reactivity based on KD: 2.6 fold

B4: monovalent CD33 building block (SEQ ID NO: 463) (VHH)
VHH: EVQLVESGGGVVQPGGSLRLSCAASGGVFRLNSMGWFRQAPGKQRELVAIITSDGDTNYADSVKGRFTISRDQAKNTVYLQMNSLRPEDTALYYCQITYSTSSYSFPINTWGQGTLVTVSS
[6]
  EC50: 6.2 nM and 5.5 nM and 7.7 nM
[7]
  EC50: 5.7 nM and 12 nM
